Measurements: patent publication US20080242587A1

Tests used:
[1] = molecular target: Ang2 (produced from CHO cell) (UniProt O15123); experiment: ELISA titration, Ang2 coated, anti-human Fc-HRP
[2] = molecular target: VEGF-A165 (produced from CHO cell) (UniProt P15692); experiment: ELISA titration (0-3 nM), VEGF-A coated, anti-human Fc-HRP
Chain of UniProt P15692 (P15692 other isoform, or with tags, fused parts or gaps limits assumed): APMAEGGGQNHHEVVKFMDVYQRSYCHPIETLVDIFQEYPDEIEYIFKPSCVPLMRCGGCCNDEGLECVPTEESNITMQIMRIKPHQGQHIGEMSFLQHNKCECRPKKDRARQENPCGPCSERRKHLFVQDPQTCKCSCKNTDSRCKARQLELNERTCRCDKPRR

Chain of UniProt O15123 (O15123 19-496 limits assumed): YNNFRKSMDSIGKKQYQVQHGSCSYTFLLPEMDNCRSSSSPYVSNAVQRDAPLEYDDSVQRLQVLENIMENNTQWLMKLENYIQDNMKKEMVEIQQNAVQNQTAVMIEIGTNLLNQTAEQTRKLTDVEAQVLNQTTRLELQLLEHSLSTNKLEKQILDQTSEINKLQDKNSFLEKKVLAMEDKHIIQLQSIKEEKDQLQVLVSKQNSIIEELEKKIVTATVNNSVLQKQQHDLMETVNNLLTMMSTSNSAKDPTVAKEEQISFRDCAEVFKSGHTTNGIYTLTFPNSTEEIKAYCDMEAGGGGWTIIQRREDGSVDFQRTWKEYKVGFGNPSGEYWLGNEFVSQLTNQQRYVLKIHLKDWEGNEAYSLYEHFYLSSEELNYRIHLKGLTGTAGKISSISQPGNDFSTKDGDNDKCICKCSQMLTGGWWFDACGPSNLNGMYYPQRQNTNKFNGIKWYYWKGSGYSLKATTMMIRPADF

| Substance | Kd [1] [nM] | Kd [2] [nM] |
| --- | --- | --- |
| Tie2-Fc (Fc fusion) | 50 | – |
| VEGF-trap (Fc fusion) | – | 0.001 |
